# Patent publication US20220289857A1 (Kyowa Kirin, published 2022)
# Numbering of substitutions follows the chain as printed. Names may count otherwise. “And” between values parts separate entries of the source, which are not always exact repeats. Equal values may be shown once.
# B1: A437/A290 mouse IgG1(D265A), kappa antibody (antibody, V domains shown)
# VH: EVQLQQSGPELVKPGASVKMSCKASGYIFQDYNMHWVKQSHGKSLEWIGYINPRNGWTNYNQKFKGKATLTVNKSSRSAYMEFRSLTSEDSAVYYCASSGWFTYWGQGTLVTVSA
# VL: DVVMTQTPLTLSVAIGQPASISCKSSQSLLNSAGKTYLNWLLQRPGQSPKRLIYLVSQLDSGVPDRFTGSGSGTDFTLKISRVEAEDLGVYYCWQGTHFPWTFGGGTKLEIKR
# B2: A448/A290 mouse IgG1(D265A), kappa antibody (antibody, V domains shown)
# VH: B1 VH with W57G
# VL: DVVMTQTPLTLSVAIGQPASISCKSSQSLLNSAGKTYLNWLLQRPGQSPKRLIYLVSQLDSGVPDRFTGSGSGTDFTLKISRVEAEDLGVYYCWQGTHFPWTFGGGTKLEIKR
# B3: A448/A439 mouse IgG1(D265A), kappa antibody (antibody, V domains shown)
# VH: B1 VH with W57G
# VL: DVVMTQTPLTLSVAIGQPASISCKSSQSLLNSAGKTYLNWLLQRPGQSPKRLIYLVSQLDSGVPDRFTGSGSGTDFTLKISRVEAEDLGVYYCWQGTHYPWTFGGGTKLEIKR
# B4: CRCBT-06-002 as mouse IgG1(D265A), kappa antibody (antibody, V domains shown)
# VH: EVKLQQSGGGLVQPGGSMKLSCVASGFTFSYYWMNWVRQSPEQGLEWIAEIRLQSNDYPTHYAESVKGRFTISRDDSKNSVYLQMNNLRPEDTGIYYCACRYADYFDHWGQGTTLTVSS
# VL: DTVLTQSPASLVVSLGQRATISCRASQSVSTSDYSYIHWYQQKPGQPPKFLIKYASNRDSGVPARFSGSGSGTDFTLNIHPVEEDDTAIYYCQHSWEIPPTFGAGTKLELQR
# B5: A641/A468 humanized IgG4 Nullbody, kappa antibody (antibody)
# heavy: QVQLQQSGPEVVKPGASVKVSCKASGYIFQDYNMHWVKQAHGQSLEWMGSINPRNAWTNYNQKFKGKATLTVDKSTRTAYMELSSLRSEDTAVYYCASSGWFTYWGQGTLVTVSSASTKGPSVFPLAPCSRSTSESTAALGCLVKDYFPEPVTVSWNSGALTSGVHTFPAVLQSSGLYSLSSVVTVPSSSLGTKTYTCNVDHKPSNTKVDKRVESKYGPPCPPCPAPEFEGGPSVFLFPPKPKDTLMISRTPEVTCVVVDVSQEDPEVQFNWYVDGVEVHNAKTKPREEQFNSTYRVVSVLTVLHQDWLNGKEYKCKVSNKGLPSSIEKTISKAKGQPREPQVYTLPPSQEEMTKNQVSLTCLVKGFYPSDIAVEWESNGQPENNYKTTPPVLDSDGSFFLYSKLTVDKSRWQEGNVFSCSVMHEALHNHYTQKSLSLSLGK
# light: DVVMTQSPLSLPVTLGQPASISCKSSQSLLNSAGKTYLNWLQQRPGQSPRRLIYLVSQLDSGVPDRFSGSGSGTDFTLKISRVEAEDVGVYYCWQGTFYPWTFGGGTKVEIKRTVAAPSVFIFPPSDEQLKSGTASVVCLLNNFYPREAKVQWKVDNALQSGNSQESVTEQDSKDSTYSLSSTLTLSKADYEKHKVYACEVTHQGLSSPVTKSFNRGEC
# B6: A648/A468 humanized IgG4 Nullbody, kappa antibody (antibody, V domains shown)
# VH: QVQLQQSGPEVVKPGASVKVSCKASGYIFQDYNMHWVKQAHGQSLEWMGSINPRNAWTNYNDKFKGKATLTVDKSTRTAYMELSSLRSEDTAVYYCASSGWFTYWGQGTLVTVSS
# VL: DVVMTQSPLSLPVTLGQPASISCKSSQSLLNSAGKTYLNWLQQRPGQSPRRLIYLVSQLDSGVPDRFSGSGSGTDFTLKISRVEAEDVGVYYCWQGTFYPWTFGGGTKVEIKR
# B7: A650/A468 humanized IgG4 Nullbody, kappa antibody (antibody)
# heavy: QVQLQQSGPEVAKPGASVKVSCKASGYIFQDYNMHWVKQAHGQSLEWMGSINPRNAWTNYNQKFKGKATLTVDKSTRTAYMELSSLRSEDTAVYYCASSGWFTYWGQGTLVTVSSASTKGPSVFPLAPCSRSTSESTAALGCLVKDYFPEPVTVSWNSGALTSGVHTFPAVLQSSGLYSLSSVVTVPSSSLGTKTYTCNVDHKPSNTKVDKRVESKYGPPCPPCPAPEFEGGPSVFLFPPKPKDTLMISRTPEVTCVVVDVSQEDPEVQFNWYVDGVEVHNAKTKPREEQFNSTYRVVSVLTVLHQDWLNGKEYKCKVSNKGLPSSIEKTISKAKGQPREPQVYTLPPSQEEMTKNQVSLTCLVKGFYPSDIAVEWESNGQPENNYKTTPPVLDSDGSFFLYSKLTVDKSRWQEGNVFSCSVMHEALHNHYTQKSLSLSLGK
# light: B5 light
# B8: R35B9 (A451/A452) antibody (antibody, V domains shown)
# VH: B1 VH with Y50S
# VL: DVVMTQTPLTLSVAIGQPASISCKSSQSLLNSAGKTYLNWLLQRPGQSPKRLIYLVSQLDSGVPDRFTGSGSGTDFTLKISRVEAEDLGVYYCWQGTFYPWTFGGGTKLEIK
# B9: R35B9(A56) (A486/A452) antibody (antibody, V domains shown)
# VH: B1 VH with Y50S, G56A
# VL: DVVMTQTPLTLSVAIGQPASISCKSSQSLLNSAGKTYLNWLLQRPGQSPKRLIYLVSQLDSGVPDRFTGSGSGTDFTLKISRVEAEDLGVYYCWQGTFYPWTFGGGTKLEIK
# notes: G56A in HCDR2 removes the NG deamidation site; Constant regions not clear
# Tests used:
# [1] = target: T1, human Fn14 (full length) on cells (human, UniProt Q9NP84 28-129); experiment: cell-based or functional assay
# T1 sequence: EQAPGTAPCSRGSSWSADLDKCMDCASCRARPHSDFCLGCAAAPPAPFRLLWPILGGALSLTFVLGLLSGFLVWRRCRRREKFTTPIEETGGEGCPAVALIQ
# [2] = target: T2, His-SUMO-huFn14 (soluble human Fn14 aa 28-75 with N-terminal 6xHis-SUMO tag) (human); experiment: SPR single-cycle kinetics; mAb captured by anti-human Fc, His-Sumo-Fn14 analyte; average of three runs
# T2 construct: also called His-SUMO-Fn14; His-SUMO-hFn14
# Protocol: (§1) Alternatively, using a method referred to as “single cycle kinetics,” the His-Sumo-Fn14 was injected with increasing concentrations in a single cycle, the surface not being regenerated between injections. Specifically, anti-human Fc specific antibodies were immobilized on a CM5 sensor chip (cat# BR100012, GE Healthcare Life Sciences, Pittsburgh, Pennsylvania) by an amine coupling chemistry. Thereafter, humanized anti-Fn14 antibodies were captured at approximately 200 RUs, followed by injections of increasing concentrations of recombinant human His-Sumo-Fn14 protein. The association time was 120 seconds, and the final dissociation time was 900 seconds. At the end of the analyte injections, the surface was regenerated with 3M MgCl₂ for 30s. The raw data were double referenced by subtraction of the signals from a reference flow cell without immobilized ligand and a buffer blank. The sensorgram corresponding to each concentration was obtained (see FIG. 6B).
# [3] = target: T2, His-SUMO-huFn14 (soluble human Fn14 aa …); experiment: SPR single-cycle kinetics; mAb captured by anti-human Fc, His-Sumo-Fn14 analyte; 1:1 fit
# Protocol: as §1
# [4] = target: T2, His-SUMO-huFn14 (soluble human Fn14 aa …); experiment: SPR Biacore; His-Sumo-huFn14 0.111-9 nM
# T2 sequence (chain, as listed by the source limits assumed): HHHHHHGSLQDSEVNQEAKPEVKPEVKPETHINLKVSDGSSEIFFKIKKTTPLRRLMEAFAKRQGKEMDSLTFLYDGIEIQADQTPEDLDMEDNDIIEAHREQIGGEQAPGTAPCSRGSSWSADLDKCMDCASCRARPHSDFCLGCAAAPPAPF
Binder,"ICAM-1 MFI on HRMC, 250 ng/mL rhTWEAK, mAb 0.1 µg/mL [1]",Kd [2],Kd [3],koff [3],kon [3],further results
B1,5110 MFI,–,–,–,–,–
B2,6430 MFI,–,–,–,–,–
B3,5480 MFI,–,–,–,–,–
B4,11800 MFI,–,–,–,–,–
B5,–,0.256 nM,0.262 nM and 0.249 nM and 0.257 nM,0.000756 s⁻¹ and 0.000773 s⁻¹ and 0.000764 s⁻¹,2.89e+06 M⁻¹ s⁻¹ and 3.11e+06 M⁻¹ s⁻¹ and 2.97e+06 M⁻¹ s⁻¹,–
B6,–,0.222 nM,0.191 nM and 0.237 nM (2×),0.000531 s⁻¹ and 0.000756 s⁻¹ and 0.000742 s⁻¹,2.78e+06 M⁻¹ s⁻¹ and 3.19e+06 M⁻¹ s⁻¹ and 3.13e+06 M⁻¹ s⁻¹,–
B7,–,0.278 nM,0.264 nM and 0.287 nM and 0.282 nM,0.000871 s⁻¹ and 0.000843 s⁻¹ and 0.000825 s⁻¹,3.3e+06 M⁻¹ s⁻¹ and 2.9e+06 M⁻¹ s⁻¹ (2×),–
B8,–,–,–,–,–,Kd [4]: 0.132 nM; koff [4]: 0.000994 s⁻¹; kon [4]: 7.52e+06 M⁻¹ s⁻¹
B9,–,–,–,–,–,Kd [4]: 0.0714 nM; koff [4]: 0.000354 s⁻¹; kon [4]: 4.96e+06 M⁻¹ s⁻¹
